Assay results: PMC3556581

Target: parental cyclophilin A (CypA) (rhesus macaque; identical in sequence to human CypA) (UniProt P62940)
Assay: ITC

| Substance | Kd [µM] | dH [kcal/mol] |
| --- | --- | --- |
| HIV-2 CA^N domain with CA Ala88 introduced (from UniProt P04590 136-279) (domain or fragment) | 8 | – |
| HIV-1 N-terminal capsid (CA^N) domain (domain or fragment) | 5 | -6.05 |
